According to doi:10.1101/2025.08.21.671446 (bioRxiv, 2025):
Where “and” joins values, the source holds several entries; their conditions need not be identical. Equal values may be shown once. Read-outs that look alike come from different tables or passages of the source.

Tests used:
SEC [1] = target: the molecule itself; assay: SEC
SEC [2] = target: the molecule itself; assay: SEC; remark: listed apart in the source
MoyR [3] = target: T1, MoyR (Mycobacterium tuberculosis H37Rv, UniProt O86331 1-269); assay: EMSA
T1 sequence: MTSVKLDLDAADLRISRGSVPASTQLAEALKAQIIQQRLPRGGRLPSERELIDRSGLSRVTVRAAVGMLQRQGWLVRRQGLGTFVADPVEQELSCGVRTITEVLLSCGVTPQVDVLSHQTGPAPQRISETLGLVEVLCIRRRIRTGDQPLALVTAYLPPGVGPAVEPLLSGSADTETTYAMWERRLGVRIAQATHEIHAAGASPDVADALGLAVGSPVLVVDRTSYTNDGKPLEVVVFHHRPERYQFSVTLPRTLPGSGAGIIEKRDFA

MoyR [4] = target: T1, MoyR; assay: EMSA; remark: listed apart in the source
MoyR [5] = target: T1, MoyR; assay: EMSA; remark: listed apart in the source

B1: MoyR (Rv0792c), GntR family (HutC subfamily) monooxygenase regulator of Mycobacterium tuberculosis (natural protein)
chain: MTSVKLDLDAADLRISRGSVPASTQLAEALKAQIIQQRLPRGGRLPSERELIDRSGLSRVTVRAAVGMLQRQGWLVRRQGLGTFVADPVEQELSCGVRTITEVLLSCGVTPQVDVLSHQTGPAPQRISETLGLVEVLCIRRRIRTGDQPLALVTAYLPPGVGPAVEPLLSGSADTETTYAMWERRLGVRIAQATHEIHAAGASPDVADALGLAVGSPVLVVDRTSYTNDGKPLEVVVFHHRPERYQFSVTLPRTLPGSGAGIIEKRDFA
stoichiometry N (SEC [1]): 2 | stoichiometry N (SEC [2]): 4 and 6

B2: moyOf1 (47 bp) (dsDNA)
DNA 1: AGCTTGACAGATGTCATAAGACGTATTAAAACGTCTTATACTCACCA
DNA 2: TGGTGAGTATAAGACGTTTTAATACGTCTTATGACATCTGTCAAGCT
Kd (MoyR [3]): 16.6 nM

B3: moyOf4 (dsDNA)
DNA 1: TAGCAGCGGAAGAAGGTCA
DNA 2: TGACCTTCTTCCGCTGCTA
binding result (MoyR [4]): no binding

B4: moyOf6 (20 bp) (dsDNA)
DNA 1: AGCTTGACAGATGTCATAAG
DNA 2: CTTATGACATCTGTCAAGCT
binding result (MoyR [5]): no binding
